Test results from paper PMC4820223.

What was measured:
[1] = molecular target: UbL-mCherry-FRB-MBP proteasome adaptor
[2] = molecular target: UbL-mCherry-GAI(1-92) proteasome adaptor (UniProt Q9LQT8)

Substance: FKBP-GFP-tail target protein
- depletion of the GFP target (GFP fluorescence by flow cytometry) in HEK293 cells after 4 h with 1, 2 or 5 uM rapalog; dimerisation bridged by rapalog [1]: 90%

Substance: GID1-GFP-tail target protein
- depletion of the GFP target (GFP fluorescence by flow cytometry) in HEK293 cells after 24 h with 10 to 50 uM and higher GA3-AM; dimerisation bridged by gibberellin GA3 [2]: 80%
